This is an account of results in patent US8795627B2, “Treatment of liver disorders by administration of RAP conjugates” (Raptor Pharmaceuticals Inc., priority 2007, dated 2014).

One experiment addresses LRP1 CR3-5 (Homo sapiens, UniProt Q07954). In words: Binding of RAP d3 / MegaRAP1 d3 variants to LRP1 CR3-5. To be noted: in words. An excerpt: FIG. 1A-B depict binding of RAP d3, MegaRAP1 d3 (RAPv2A d3) and intermediate sequence variants to LRP2 CR89 and LRP1 CR3-5. FIG. 1A illustrates binding of RAP d3 mutants and RAPv2A d3 revertants to LRP2 CR89. FIG. 1B illustrates binding of RAP d3 mutants and RAPv2A d3 revertants to LRP1 CR3-5. Data were plotted and fitted by non-linear regression with the assumption of a single binding site (GraphPad Prism). Kd values with standard deviations were derived from the regression analysis.
Percent of maximum binding is the ratio of the OD at the highest concentration tested for each ligand and the highest OD measured for all such ligands at that concentration.

The target of experiment [1] is CR pairs of the second ligand-binding domain of human LRP1. To be noted: all pairs except CR9-CR10; read-out: affinity of adjacent CR pairs for RAP d3; cited from earlier work.

Sequence of LRP1 CR3-5 (Q07954 852-973 limits assumed): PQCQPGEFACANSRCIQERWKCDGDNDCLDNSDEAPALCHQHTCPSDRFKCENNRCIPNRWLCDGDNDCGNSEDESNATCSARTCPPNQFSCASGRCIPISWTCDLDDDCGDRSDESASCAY

B1: MegaRAP1: RAPd3 variant; Table 2 positions 213 T, 217 K, 249 Y, 251 K, 256 A, 270 E (protein)
chain: GLDRLRRVSHQGYTTEAKFEEPRVIDLWDLAQSANLTDKELEAFREELKYFKAKIEAHNHYQKQLEIAHEELRHAESVGDGERVSRSREKHALLEGRTKELGYTVKKHLQDLSGRISRARHNEL
For the molecule B1, in the experiment with LRP1 CR3-5, the “binding to LRP1 CR domains” value is reported as “fails to bind LRP1 CR domains”.

B2: RAP d3: third domain (d3) of receptor-associated protein, amino acids 200-323 of mature RAP; row 'RAP' of Table 2 (protein, listed as Homo sapiens)
chain: LDRLRRVSHQGYSTEAEFEEPRVIDLWDLAQSANLTDKELEAFREELKHFEAKIEKHNHYQKQLEIAHEKLRHAESVGDGERVSRSREKHALLEGRTKELGYTVKKHLQDLSGRISRARHNEL
For B2, the Kd in experiment [1] is 1 to 5 nM.
